Reference: US20230357447A1 (JANUX THERAPEUTICS, published 2023)

B1: Phage-297 clonal phage peptide (peptide)
peptide: MDWCPRHLWTECFS
notes: on phage (pIII fusion)
B2: Phage-236 clonal phage peptide (peptide)
peptide: MDWCPRDLWNLCFF
notes: on phage (pIII fusion)
B3: Phage-265 clonal phage peptide (peptide)
peptide: MDWCPRFMWDLCFA
notes: on phage (pIII fusion)
B4: Phage-278 clonal phage peptide (peptide)
peptide: MDWCPRSIWYLCFN
notes: on phage (pIII fusion)
B5: Phage-298 clonal phage peptide (peptide)
peptide: MDWCPLYLWAECFN
notes: on phage (pIII fusion)
B6: Phage-198 (peptide)
peptide: MDWCPRAMWNHCFN
B7: Phage-207 (peptide)
peptide: MDWCPRAMWHECFY
B8: Phage-205 (peptide)
peptide: MDWCPTDMWHHCFL
B9: Phage-201 (peptide)
peptide: MDWCPRDMWDQCFD
B10: Phage-170 (peptide)
peptide: MNWCPSDLWHLCFN
B11: Phage-175 (peptide)
peptide: MDWCPAYLWAECFS
B12: Phage-196 (peptide)
peptide: MDWCPRYMWYQCFS
B13: Phage-172 (peptide)
peptide: MDWCPPYLWYECFA
B14: Phage-184 (peptide)
peptide: MHWCPINLWNECFS
B15: Phage-203 (peptide)
peptide: MSWCPRDMWFYCYA
B16: Phage-189 (peptide)
peptide: VDWCPRYLWHVCYN
B17: Phage-174 (peptide)
peptide: MDWCPKHLWNECFN
B18: Phage-177 (peptide)
peptide: MDWCPVSLWDHCFN
B19: Phage-193 (peptide)
peptide: MDWCPMDMWVNCFN
B20: Phage-188 (peptide)
peptide: MDWCPSYLWDQCFF
B21: Phage-209 (peptide)
peptide: IDWCPQDMWFYCFN
B22: Phage-215 (peptide)
peptide: MDWCPRYMWNECFN
B23: Phage-181 (peptide)
peptide: MYWCPRDLWDVCFN
B24: Phage-213 (peptide)
peptide: MNWCPSYMWDQCFA
B25: Phage-171 (peptide)
peptide: MNWCPSHLWHMCYF
B26: Phage-199 (peptide)
peptide: MDWCPRNMWAQCFA
B27: Phage-167 (peptide)
peptide: MSWCPQDLWHVCFN
B28: Phage-202 (peptide)
peptide: MFWCPMDMWDQCFN
B29: Phage-214 (peptide)
peptide: MDWCPTYMWSECFN
B30: Phage-164 (peptide)
peptide: MDWCPKFLWDLCFA
B31: Phage-176 (peptide)
peptide: MDWCPSDLWHECFH
B32: Phage-168 (peptide)
peptide: MDWCPKDLWHECFN
B33: Phage-183 (peptide)
peptide: IDWCPRDLWALCFN
B34: Phage-173 (peptide)
peptide: MDWCPMNLWSECFN
B35: Phage-206 (peptide)
peptide: IHWCPINMWDKCYN
B36: Phage-200 (peptide)
peptide: MFWCPFDMWHFCFN
B37: Phage-190 (peptide)
peptide: MDWCPRDMWAECFF
B38: Phage-212 (peptide)
peptide: MDWCPRAMWDKCFF
B39: Phage-179 (peptide)
peptide: MDWCPWILWNECFN
B40: Phage-210 (peptide)
peptide: MDWCPRDMWFECFA
B41: Phage-195 (peptide)
peptide: MDWCPKHMWFMCFN
B42: Phage-186 (peptide)
peptide: QDWCPTYLWHHCFN
B43: Phage-182 (peptide)
peptide: MHWCPRSLWNECYF
B44: Phage-165 (peptide)
peptide: MDWCPFYLWDECFL
B45: Phage-197 (peptide)
peptide: MDWCPRHMWYECFF
B46: Phage-163 (peptide)
peptide: MFWCPRYLWHECFN
B47: Phage-192 (peptide)
peptide: DVWCPKYMWSLCFN
B48: Phage-187 (peptide)
peptide: IGKLTLCLNADLVI
B49: Phage-194 (peptide)
peptide: MDWCPSDMWHECYA
B50: Phage-208 (peptide)
peptide: MDWCPTDMWIVCFA
B51: Phage-216 (peptide)
peptide: MDWCPMNMWYQCFN
B52: Phage-191 (peptide)
peptide: MDWCPRDMWYECFN

Target: T1, anti-CD28 scFv (VH-linker 1-VL) (biotinylated (site not stated))
T1 construct: Captured as biotinylated scFv on neutravidin coated plates in the phage ELISA
T1 sequence (scFv, as listed by the source): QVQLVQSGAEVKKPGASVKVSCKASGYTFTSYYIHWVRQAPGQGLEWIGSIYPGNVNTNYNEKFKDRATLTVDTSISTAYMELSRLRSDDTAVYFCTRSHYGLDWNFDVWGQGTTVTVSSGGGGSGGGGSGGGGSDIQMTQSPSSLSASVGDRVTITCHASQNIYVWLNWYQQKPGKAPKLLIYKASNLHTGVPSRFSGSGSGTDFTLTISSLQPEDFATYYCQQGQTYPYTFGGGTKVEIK
Assay: phage ELISA; scFv wells pre-incubated with soluble CD28 (competitor);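 note: crude clonal phage supernatants added to wells pretreated with soluble CD28 in blocking buffer, bound phage read via HRP-linked anti-M13 antibody, reference wells got blocking buffer only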

Binder	CD28 scFv signal in presence of CD28
B1	0.243
B2	0.436
B3	0.725
B4	1.34
B5	0.193

Target: T2, Anti-CD28 scFv (VH-linker 1-VL) (biotinylated for capture on neutravidin plates)
T2 sequence (scFv, as listed by the source): as above
Assay: phage ELISA, scFv captured on plate;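 note: crude clonal phage supernatants added to wells preincubated with soluble CD28 or with blocking buffer only, bound phage read out by HRP-linked anti-M13 antibody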
Method: (§1) Clonal phage were harvested as crude supernatants and screened via standard enzyme linked immunosorbent assays (ELISAs). […] Prior to the addition of clonal phage, wells were incubated with blocking buffer and CD28 soluble protein or blocking buffer alone. Without washing or aspirating, clonal phage supernatants were then added to the wells and incubated for a short time. Wells were then washed followed by detection of bound phage using a horse radish peroxidase conjugated anti-M13 antibody.

Binder	Phage binding ELISA CD28 scFv signal
B6	2.33
B7	1.92
B8	2.2
B9	2.29
B10	0.739
B11	0.64
B12	2.36
B13	0.692
B14	0.316
B15	2.25
B16	0.065
B17	0.663
B18	0.616
B19	2.52
B20	0.083
B21	1.42
B22	0.687
B23	0.512
B24	0.854
B25	0.702
B26	2.31
B27	0.86
B28	2.26
B29	0.754

Binder	Phage binding ELISA CD28 scFv signal
B30	1.07
B31	0.629
B32	0.762
B33	0.37
B34	0.67
B35	2.08
B36	2.29
B37	2.69
B38	0.985
B39	0.581
B40	1.31
B41	2.4
B42	0.123
B43	0.456
B44	1.02
B45	2.34
B46	1.08
B47	2.53
B48	0.116
B49	2.47
B50	1.5
B51	0.639
B52	2.56

Target: T2, Anti-CD28 scFv (VH-linker 1-VL)
Assay: phage ELISA, scFv captured on plate, competitor soluble CD28;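 note: crude clonal phage supernatants added to wells pre-incubated with soluble CD28 or with blocking buffer only as control, bound phage read out with HRP-linked anti-M13 antibody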
Method: as §1

Binder	Phage binding ELISA CD28 scFv signal in presence of CD28
B6	0.426
B7	0.129
B8	0.126
B9	0.119
B10	0.131
B11	0.12
B12	0.357
B13	0.094
B14	0.098
B15	0.174
B16	0.061
B17	0.105
B18	0.1
B19	0.277
B20	0.079
B21	0.16
B22	0.128
B23	0.102
B24	0.105
B25	0.192
B26	0.209
B27	0.112
B28	0.207
B29	0.107

Binder	Phage binding ELISA CD28 scFv signal in presence of CD28
B30	0.139
B31	0.164
B32	0.1
B33	0.129
B34	0.124
B35	0.203
B36	0.469
B37	2.26
B38	0.094
B39	0.137
B40	0.143
B41	0.372
B42	0.122
B43	0.115
B44	0.141
B45	0.298
B46	0.175
B47	0.418
B48	0.1
B49	0.2
B50	0.172
B51	0.137
B52	0.235
